This test deals with hCXCR2 knock-in mice. The test can be described thus: House dust mite (HDM) severe asthma model in hCXCR2 knock-in mice. The conditions noted are these: 10 mg/kg intraperitoneal days 5 and 12, versus vehicle. It is filed as in vivo, mouse. The text has this: hCXCR2 knock-in mice were generated by use of homologous recombination in embryonic stem (ES) cells to insert the human CXCR2 into exon 1 of the mouse CXCR2 gene. The single coding exon of human CXCR2 was inserted into a vector with 5′ and 3′ arms homologous to the genomic location of the mouse coding exon of CXCR2, giving rise to a gene structure that coded for human CXCR2 but retained the mouse non-coding and regulatory elements. This vector was electroporated into C57B1/6 mouse ES cells which were incorporated into C57B1/6 mouse blastocysts and transplanted into pseudopregnant female mice. Pups were backcrossed to the parental C57B1/6 strain and offspring screened by southern blot for germline transmission of the human CXCR2 gene. Mice heterozygous for human CXCR2 were intercrossed to give a homozygous human CXCR2 line and phenotype was confirmed by analysis of binding of anti-mouse and anti-human CXCR2 antibodies by flow cytometry.
The anti-CXCR2 antibody BKO-4A8-mIgG1 (SEQ ID NOs: 113 and 114) was generated by formatting the variable heavy and light chains of BKO-4A8 onto an effector function-reduced mouse IgG1 constant region. Female hCXCR2 knock-in mice were subjected to sensitization with 50 μg HDM in complete Freund's adjuvant (CFA) administered by subcutaneous injection on day 0 and intranasal challenge with […] without CFA on day 14. Animals were treated with vehicle or BKO-4A8-mIgG1 (10 mg/kg) via intraperitoneal injection on days 5 and 12. Inflammatory responses were characterized at endpoint on day 16 by total and differential cell counts in bronchoalveolar lavage (BAL) fluid of the right lung. The left lung was fixed in 10% formalin for histopathology and mucus production assessment.
Statistical evaluation was performed using a Mann-Whitney nonparametric unpaired t test with outliers identified using Grubbs' test (Alpha=0.01) to discern statistically significant differences between the vehicle and treatment groups. All statistical analyses were performed using GraphPad Prism™ 7.01.

B1: BKO-4A8-mIgG1: BKO-4A8 variable chains on an effector function-reduced mouse IgG1 constant region (SEQ ID NOs: 113 and 114) (antibody)
heavy: EVQLLESGGGLVQPGGSLRLSCAASGFTFSSSTMSWVRQAPGKGLEWVSAISGRGRNTYYADSVKGRFTISRDNSRNTLYLQMNSLRAEDTAVYYCAIQMGYWGQGILVTVSSAKTTPPSVYPLAPGSAAQTNSMVTLGCLVKGYFPEPVTVTWNSGSLSSGVHTFPAVLQSDLYTLSSSVTVPSSPRPSETVTCNVAHPASSTKVDKKIVPRDCGCKPCICTVPEVSSVFIFPPKPKDVLTITLTPKVTCVVVAISKDDPEVQFSWFVDDVEVHTAQTQPREEQFNSTFRSVSELPIMHQDWLNGKEFKCRVNSAAFPAPIEKTISKTKGRPKAPQVYTIPPPKEQMAKDKVSLTCMITDFFPEDITVEWQWNGQPAENYKNTQPIMNTNGSYFVYSKLNVQKSNWEAGNTFTCSVLHEGLHNHHTEKSLSHSPG
light: QSALTQPPSASGSPGQSVTISCIGTSSDVGGYNYVSWYQQHPDKAPKLMIYEVNKRPSGVPDRFSGSKSGNTASLTVSGLQAEDEADYYCSSYAGNNNFGVFGGGTKLTVLGQPKSSPSVTLFPPSSEELETNKATLVCTITDFYPGVVTVDWKVDGTPVTQGMETTQPSKQSNNKYMASSYLTLTARAWERHSSYSCQVTHEGHTVEKSLSRADCS
modifications: effector function-reduced mouse IgG1 constant region; BKO-4A8-mIgG1 VH; BKO-4A8-mIgG1 VL
Consider B1, for which the goblet cell hyperplasia entry (p=0.0052) is on record as “reduced goblet cell hyperplasia”. Moreover, the “reduction in BAL eosinophil counts” value (p=0.017) is given as above 60%. Also, the “reduction in BAL neutrophil counts” value (p=0.028) is above 60%.

These data come from US12018084B2, “Anti-CXCR2 antibodies and uses thereof” (Cephalon LLC, priority 2018, dated 2024).
